Measured values: paper PMC5112516
Numbering of substitutions follows the chain as printed.

What was measured:
Test in all cases: tryptophan fluorescence quenching
Conditions in all cases: Fluorescence and EMSA: PBS (130 mM NaCl, 2.7 mM KCl, 10 mM Na2HPO4, 2 mM KH2PO4, pH 7.4), 25 C; ELISA: 10 mM KH2PO4, 50 mM KCl, pH 7, 0.1% Tween 20
[1] = target: T1, Sac7d (Sulfolobus acidocaldarius) (UniProt P13123)
T1 sequence: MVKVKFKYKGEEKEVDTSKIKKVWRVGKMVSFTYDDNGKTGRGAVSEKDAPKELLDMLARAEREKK

[2] = target: T2, Ssh7b (Sulfolobus shibatae) (UniProt O59632)
T2 sequence: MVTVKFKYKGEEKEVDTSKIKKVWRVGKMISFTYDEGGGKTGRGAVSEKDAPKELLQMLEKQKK

[3] = target: T1, Sac7d (Sulfolobus acidocaldarius); remark: listed apart in the source
[4] = target: T3, Aho7a (Acidianus hospitalis) (UniProt F4B991)
T3 sequence: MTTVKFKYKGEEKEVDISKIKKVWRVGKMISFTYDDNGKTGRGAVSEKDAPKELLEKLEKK

Mcu7 = test system: Mcu7
Sis7b = test system: Sis7b
Mse7 = test system: Mse7
[5] = target: T4, Ssh7a (Sulfolobus shibatae) (UniProt P61990)
T4 sequence: T2 sequence with V2A, E14Q, T17I

[6] = target: T5, Sso7d (Sulfolobus solfataricus) (UniProt P39476)
T5 sequence: T2 sequence with V2A, T17I

Sto7 = test system: Sto7
[7] = target: T6, Aho7b (Acidianus hospitalis) (UniProt F4B9I5)
T6 sequence: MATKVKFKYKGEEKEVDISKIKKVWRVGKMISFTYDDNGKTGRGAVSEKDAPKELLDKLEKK

[8] = target: T7, Aho7c (Acidianus hospitalis) (UniProt F4B8X5)
T7 sequence: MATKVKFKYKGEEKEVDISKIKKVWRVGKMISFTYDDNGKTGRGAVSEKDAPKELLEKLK

Sis7a = test system: Sis7a
[9] = target: T8, Sac7e (Sulfolobus acidocaldarius) (UniProt P13125)
T8 sequence: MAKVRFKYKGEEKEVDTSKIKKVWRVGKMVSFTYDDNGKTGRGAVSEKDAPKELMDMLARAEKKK

calf-thymus DNA (ct-DNA), sonicated
Kd [1]: 203 nM | Kd [2]: 22 µM | Kd [3]: 13 µM | Kd [4]: 16 µM | Kd (Mcu7): 16 µM | Kd (Sis7b): 16 µM | Kd (Mse7): 15 µM | Kd [5]: 18 µM | Kd [6]: 17 µM | Kd (Sto7): 14 µM | Kd [7]: 13 µM | Kd [8]: 16 µM | Kd (Sis7a): 15 µM | Kd [9]: 11 µM
